According to patent publication US20080009025A1, “PROTEIN KINASE REGULATION” (priority 1999, published 2008):

T1: GST-PDK1 (Homo sapiens, UniProt O15530)
T1 construct: Full length PDK1 (residues 1-556); made in house; host or cells: 293 cells
T1 sequence (O15530 1-556): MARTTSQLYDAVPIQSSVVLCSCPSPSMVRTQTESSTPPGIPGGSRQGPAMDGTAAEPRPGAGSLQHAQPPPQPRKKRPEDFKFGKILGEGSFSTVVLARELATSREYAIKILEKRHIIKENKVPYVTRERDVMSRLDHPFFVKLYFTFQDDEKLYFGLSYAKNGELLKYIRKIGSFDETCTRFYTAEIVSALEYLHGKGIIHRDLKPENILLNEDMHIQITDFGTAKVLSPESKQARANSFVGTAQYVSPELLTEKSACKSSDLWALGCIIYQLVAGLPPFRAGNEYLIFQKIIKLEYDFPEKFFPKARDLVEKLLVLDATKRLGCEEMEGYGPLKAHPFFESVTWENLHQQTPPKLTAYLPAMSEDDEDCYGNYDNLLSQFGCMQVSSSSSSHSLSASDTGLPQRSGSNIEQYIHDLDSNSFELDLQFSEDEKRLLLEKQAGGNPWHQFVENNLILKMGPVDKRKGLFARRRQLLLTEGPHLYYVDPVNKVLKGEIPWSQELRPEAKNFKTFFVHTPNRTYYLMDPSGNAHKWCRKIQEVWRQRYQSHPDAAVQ


Key:
GST-PDK1 = molecular target: T1, GST-PDK1; assay: Thermal denaturation of PDK1 (TM50); assay type: biochemical; conditions: heated 2 min; no PIFtide
From the text: A further aspect of the invention provides the use of an interacting polypeptide as defined above, for example comprising the amino acid sequence Phe/Tyr-Xaa-Xaa-Phe/Tyr or an interacting compound of the invention in a method of stabilising a protein kinase having a hydrophobic pocket in the position equivalent to the hydrophobic pocket of Protein Kinase A (PKA) that is defined by residues including Lys76, Leu116, Val80 and/or Lys111 of full-length mouse PKA, wherein the protein kinase is exposed to the compound or polypeptide. Stabilisation may be measured by measuring the TM50 value. The TM50 value is the temperature at which heating for two minutes produces a 50% reduction in protein kinase activity (measured using any appropriate substrate) compared with the protein kinase activity before such heating, as described in Example 2. An increase in the TM50 value, for example by at least about 1, 2, 3, 4, 5, 6, 7, 8, 9, 10 or 15° C. indicates stabilisation.
FIG. 12. PDK1 is activated and stabilised through its interaction with PIFtide. (A) GST-PDK1 activity was measured in the presence of increasing concentrations of wild type (wt) PIFtide (closed circles) or a mutant D978A PIFtide (open circles) using the synthetic peptide substrate termed T308tide, as described in Material and Methods. The data was fitted to a hyperbola using the Kaleidagraph™ software. […]

S6K1[412E] = assay: Activation of S6K1[412E] by PDK1 PIF pocket mutants; assay type: biochemical, human
Method: (§1) FIG. 20. Effect of PIFtide on the activation of S6K1 and SGK1 by PDK1 PIF pocket mutants (155A, 115A, 119A, 150A). GST-PDK1, GST-PDK1 L155E, 155A, 115A, 119A and 150A were tested for their ability to activate His-S6K1 412E and GST-SGK1 422D. The phosphorylation and activation of substrates was performed as described in FIG. 17. When PIFtide was included in the reaction, it was pre-incubated on ice for ˜15 min until the reaction was initiated with the addition of ATP-Mg.
(§2) Activation of AGC kinase PDK1 substrates. Phosphorylation reactions were carried out as above except that non-radioactive ATP replaced [γ-^32P]ATP. Following 10 min at 30° C., cocktail (30 μl) containing 50 mM Tris-HCl pH 7.5, 0.1% (by vol) 2-mercaptoethanol, 10 mM magnesium chloride, […], 0.5 μM microcystin-LR and 100 μM peptide substrate crosstide (GRPRTSSFAEG) and [γ-^32P]ATP (˜600 c.p.m./pmol). Reactions were stopped by the addition of 25 μl of 0.2 M EDTA pH 8.0, spotted onto P81 phosphocellulose paper, washed and analysed as described for the assay of MAP kinase. The amount of PDK1 was in the assay was varied so that the assay was in the linear range. One unit of activity is deficed as phosphorylation 1 nmol of substrate in 1 min.

SGK1[T422D] = assay: Activation of SGK1[T422D] by PDK1 PIF pocket mutants; assay type: biochemical
Method: as §1, §2

| Molecule | TM50 value (GST-PDK1) [°C] | rate of activation of S6K1[412E] compared with wild type PDK1 (S6K1[412E]) | rate of activation of SGK1[T422D] compared with wild type PDK1 (SGK1[T422D]) |
| --- | --- | --- | --- |
| L155D: PDK1 mutant, Leu155 to Asp (protein, left off: small tags and cut ends, PDK1 mutant, Leu155 to Asp) MARTTSQLYDAVPIQSSVVLCSCPSPSMVRTQTESSTPPGIPGGSRQGPAMDGTAAEPRPGAGSLQHAQPPPQPRKKRPEDFKFGKILGEGSFSTVVLARELATSREYAIKILEKRHIIKENKVPYVTRERDVMSRLDHPFFVKLYFTFQDDEKDYFGLSYAKNGELLKYIRKIGSFDETCTRFYTAEIVSALEYLHGKGIIHRDLKPENILLNEDMHIQITDFGTAKVLSPESKQARANSFVGTAQYVSPELLTEKSACKSSDLWALGCIIYQLVAGLPPFRAGNEYLIFQKIIKLEYDFPEKFFPKARDLVEKLLVLDATKRLGCEEMEGYGPLKAHPFFESVTWENLHQQTPPKLTAYLPAMSEDDEDCYGNYDNLLSQFGCMQVSSSSSSHSLSASDTGLPQRSGSNIEQYIHDLDSNSFELDLQFSEDEKRLLLEKQAGGNPWHQFVENNLILKMGPVDKRKGLFARRRQLLLTEGPHLYYVDPVNKVLKGEIPWSQELRPEAKNFKTFFVHTPNRTYYLMDPSGNAHKWCRKIQEVWRQRYQSHPDAAVQ | 42 | – | – |
| K115A: PDK1 mutant, Lys115 to Ala in the PIF-binding pocket (protein, left off: small tags and cut ends) MARTTSQLYDAVPIQSSVVLCSCPSPSMVRTQTESSTPPGIPGGSRQGPAMDGTAAEPRPGAGSLQHAQPPPQPRKKRPEDFKFGKILGEGSFSTVVLARELATSREYAIKILEARHIIKENKVPYVTRERDVMSRLDHPFFVKLYFTFQDDEKLYFGLSYAKNGELLKYIRKIGSFDETCTRFYTAEIVSALEYLHGKGIIHRDLKPENILLNEDMHIQITDFGTAKVLSPESKQARANSFVGTAQYVSPELLTEKSACKSSDLWALGCIIYQLVAGLPPFRAGNEYLIFQKIIKLEYDFPEKFFPKARDLVEKLLVLDATKRLGCEEMEGYGPLKAHPFFESVTWENLHQQTPPKLTAYLPAMSEDDEDCYGNYDNLLSQFGCMQVSSSSSSHSLSASDTGLPQRSGSNIEQYIHDLDSNSFELDLQFSEDEKRLLLEKQAGGNPWHQFVENNLILKMGPVDKRKGLFARRRQLLLTEGPHLYYVDPVNKVLKGEIPWSQELRPEAKNFKTFFVHTPNRTYYLMDPSGNAHKWCRKIQEVWRQRYQSHPDAAVQ | – | only marginally lower | markedly reduced |
| Q150A: PDK1 mutant, Gln150 to Ala (protein, left off: small tags and cut ends, PDK1 mutant, Gln150 to Ala) MARTTSQLYDAVPIQSSVVLCSCPSPSMVRTQTESSTPPGIPGGSRQGPAMDGTAAEPRPGAGSLQHAQPPPQPRKKRPEDFKFGKILGEGSFSTVVLARELATSREYAIKILEKRHIIKENKVPYVTRERDVMSRLDHPFFVKLYFTFADDEKLYFGLSYAKNGELLKYIRKIGSFDETCTRFYTAEIVSALEYLHGKGIIHRDLKPENILLNEDMHIQITDFGTAKVLSPESKQARANSFVGTAQYVSPELLTEKSACKSSDLWALGCIIYQLVAGLPPFRAGNEYLIFQKIIKLEYDFPEKFFPKARDLVEKLLVLDATKRLGCEEMEGYGPLKAHPFFESVTWENLHQQTPPKLTAYLPAMSEDDEDCYGNYDNLLSQFGCMQVSSSSSSHSLSASDTGLPQRSGSNIEQYIHDLDSNSFELDLQFSEDEKRLLLEKQAGGNPWHQFVENNLILKMGPVDKRKGLFARRRQLLLTEGPHLYYVDPVNKVLKGEIPWSQELRPEAKNFKTFFVHTPNRTYYLMDPSGNAHKWCRKIQEVWRQRYQSHPDAAVQ | – | only marginally lower | markedly reduced |
| L155A: PDK1 mutant, Leu155 to Ala (protein, left off: a dimerising Fc or GST; small tags and cut ends, PDK1 mutant, Leu155 to Ala) MARTTSQLYDAVPIQSSVVLCSCPSPSMVRTQTESSTPPGIPGGSRQGPAMDGTAAEPRPGAGSLQHAQPPPQPRKKRPEDFKFGKILGEGSFSTVVLARELATSREYAIKILEKRHIIKENKVPYVTRERDVMSRLDHPFFVKLYFTFQDDEKAYFGLSYAKNGELLKYIRKIGSFDETCTRFYTAEIVSALEYLHGKGIIHRDLKPENILLNEDMHIQITDFGTAKVLSPESKQARANSFVGTAQYVSPELLTEKSACKSSDLWALGCIIYQLVAGLPPFRAGNEYLIFQKIIKLEYDFPEKFFPKARDLVEKLLVLDATKRLGCEEMEGYGPLKAHPFFESVTWENLHQQTPPKLTAYLPAMSEDDEDCYGNYDNLLSQFGCMQVSSSSSSHSLSASDTGLPQRSGSNIEQYIHDLDSNSFELDLQFSEDEKRLLLEKQAGGNPWHQFVENNLILKMGPVDKRKGLFARRRQLLLTEGPHLYYVDPVNKVLKGEIPWSQELRPEAKNFKTFFVHTPNRTYYLMDPSGNAHKWCRKIQEVWRQRYQSHPDAAVQ | – | only marginally lower | markedly reduced |
| I119A: PDK1 mutant, Ile119 to Ala (protein, left off: small tags and cut ends, PDK1 mutant, Ile119 to Ala) MARTTSQLYDAVPIQSSVVLCSCPSPSMVRTQTESSTPPGIPGGSRQGPAMDGTAAEPRPGAGSLQHAQPPPQPRKKRPEDFKFGKILGEGSFSTVVLARELATSREYAIKILEKRHIAKENKVPYVTRERDVMSRLDHPFFVKLYFTFQDDEKLYFGLSYAKNGELLKYIRKIGSFDETCTRFYTAEIVSALEYLHGKGIIHRDLKPENILLNEDMHIQITDFGTAKVLSPESKQARANSFVGTAQYVSPELLTEKSACKSSDLWALGCIIYQLVAGLPPFRAGNEYLIFQKIIKLEYDFPEKFFPKARDLVEKLLVLDATKRLGCEEMEGYGPLKAHPFFESVTWENLHQQTPPKLTAYLPAMSEDDEDCYGNYDNLLSQFGCMQVSSSSSSHSLSASDTGLPQRSGSNIEQYIHDLDSNSFELDLQFSEDEKRLLLEKQAGGNPWHQFVENNLILKMGPVDKRKGLFARRRQLLLTEGPHLYYVDPVNKVLKGEIPWSQELRPEAKNFKTFFVHTPNRTYYLMDPSGNAHKWCRKIQEVWRQRYQSHPDAAVQ | – | only marginally lower | markedly reduced |
